Substitutions are numbered along the chain they refer to. In names and notes the source's numbering stands.
Tests used:
[1] = target: T1, Streptomyces sp. strain TH1 L-proline-3-hydroxylase (cis-P3H, SEQ ID NO. 1) mutant R97M (Streptomyces sp., UniProt P96010, R97M); test: Kinetic parameters of L-proline-3-hydroxylase mutant R97M (Michaelis-Menten fit); type: biochemical
T1 sequence (P96010 1-290 R97M): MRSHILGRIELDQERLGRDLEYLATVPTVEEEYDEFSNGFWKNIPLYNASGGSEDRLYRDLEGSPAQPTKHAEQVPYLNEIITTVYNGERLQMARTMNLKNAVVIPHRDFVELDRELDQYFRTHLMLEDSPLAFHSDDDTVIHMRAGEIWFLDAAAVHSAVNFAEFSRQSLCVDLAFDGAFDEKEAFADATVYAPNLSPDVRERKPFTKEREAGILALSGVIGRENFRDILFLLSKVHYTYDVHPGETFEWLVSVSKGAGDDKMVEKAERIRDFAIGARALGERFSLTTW
Procedure: […]
(§1) The reaction was terminated by boiling, and the sample after the termination of reaction was analyzed by high-performance liquid chromatography (HPLC). […]
(§2) Kinetic parameters (Km and Vmax) were determined using a reaction mixture with a final volume of 250 μL. […]

[2] = target: T2, Streptomyces sp. strain TH1 L-proline-3-hydroxylase (cis-P3H), wild type (WT), SEQ ID NO. 1 (Streptomyces sp., UniProt P96010); test: Kinetic parameters of wild-type L-proline-3-hydroxylase (Michaelis-Menten fit); type: biochemical; conditions: WT pure enzyme; L-pipecolic acid 0.30 to 25 mM, 2-OG 0.30 to 40 mM; pH 6.5, 17° C.; three measurements
T2 sequence (P96010 1-290): T1 sequence (P96010 1-290 R97M) with M97R
Procedure: […]
as §1, §2

[3] = substrate: O=C(O)[C@@H]1CCCCN1; test: Kinetic parameters of L-proline-3-hydroxylase mutant R97M (Michaelis-Menten fit); type: biochemical, Streptomyces sp. strain TH1; conditions: other: R97M pure enzyme, L-pipecolic acid 0.30 to 25 mM, 2-OG 0.30 to 40 mM, pH 6.5, 17° C., three measurements
Source text: (§3) The present disclosure further provides a method for constructing the L-proline-3-hydroxylase mutant above, the method includes the following steps: • (1) according to sequence information of the L-proline-3-hydroxylase from Streptomyces sp. strain TH1 disclosed in the NCBI database, performing codon optimization based on codon preference rules of Escherichia coli to obtain an optimized gene of L-proline-3-hydroxylase; connecting the optimized gene of L-proline-3-hydroxylase into an expression vector pET28a to construct an L-proline-3-hydroxylase expression vector; • (2) using genes (involved in site-directed saturation mutagenesis) synthesized by GENCEFE Biotech to prepare an expression vector containing the L-proline-3-hydroxylase mutant; • (3) transforming the above vectors into BL21 engineering bacteria by chemical transformation to express each enzyme protein; culturing the strain in a test tube at 37° C. shaker overnight, transferring the same to an LB liquid culture medium containing 50 mg·L^−1 kanamycin at a 2% inoculation rate, culturing at 37° C. for 2-2.5 hours, and then adding IPTG with a concentration of 0.10 mM to adjust a temperature to 17° C. and culturing for 16 hours; • (4) centrifuging at 8000 r·min^−1 for 5 minutes and collecting bacterial pellets, disrupting cells through an ultrasonic disruption method, centrifuging in a refrigerated centrifuge at 12000 r·min^−1 for 30 minutes to collect supernatant, directly using the supernatant for crude enzyme reaction to explore changes in molar yield under crude enzyme conditions; or purifying the supernatant with a nickel column, and enzymatic properties such as enzyme activity and kinetic parameters of the pure L-proline-3-hydroxylase can be determined. Specifically, the enzyme activity is detected using an Fmoc-Cl pre-column derivatization method, and analyzed by high-performance liquid chromatography (HPLC). The kinetic parameters (Km and Vmax) are measured in a standard enzyme activity assay system, with three separate measurements. Data are fitted to a Michaelis-Menten model using GraphPad Prism, and a protein concentration is kept at 0.50 mg·mL-1 during the measurements.
(§4) Specifically, the reaction under crude enzyme conditions was performed for 12 hours, the reaction under pure enzyme conditions was performed for 15 minutes, and a final protein concentration for the reaction under pure enzyme conditions was 0.5 mg·mL^−1.
as §1, §2

[4] = substrate: O=C(O)CCC(=O)C(=O)O; test: purified protein, by the assay type; conditions: L-pipecolic acid 0.30 to 25 mM, 2-OG 0.30 to 40 mM, pH 6.5, 17° C., three measurements
[5] = substrate: O=C(O)[C@@H]1CCCCN1; test: Kinetic parameters of wild-type L-proline-3-hydroxylase (Michaelis-Menten fit); type: biochemical, Streptomyces sp. strain TH1; conditions: other: WT pure enzyme, L-pipecolic acid 0.30 to 25 mM, 2-OG 0.30 to 40 mM, pH 6.5, 17° C., three measurements
Source text: as §3, §4, §1, §2

O=C(O)[C@@H]1CCCCN1 [L-Pip, L-pipecolic acid] was tested, and the kcat/Km ([1]; R97M pure enzyme, L-pipecolic acid 0.30 to 25 mM, 2-OG 0.30 to 40 mM, pH 6.5, 17° C., three measurements) was 34.8 M⁻¹ s⁻¹, the “catalytic efficiency kcat/Km of R97M relative to WT” value ([1]; ratio R97M / WT) was 1.83 times and the kcat/Km [2] was 19 M⁻¹ s⁻¹.

B1: Streptomyces sp. strain TH1 L-proline-3-hydroxylase (cis-P3H, SEQ ID NO. 1) mutant R97M (Streptomyces sp.; R97M) (protein)
chain: T1 sequence (P96010 1-290 R97M)
B1 showed a Km [3] of 6.83 ± 0.32 mM, a Vmax [3] of 212 µM/min and a kcat [3] of 0.23 ± 0.00367 s⁻¹. For the same molecule, the kcat/Km [3] was 34.8 ± 1 M⁻¹ s⁻¹, the Km ([4]; other: R97M pure enzyme) was 1.46 ± 0.01 mM and the Vmax ([4]; other: R97M pure enzyme) was 139 µM/min. For the same molecule, the kcat ([4]; other: R97M pure enzyme) was 0.151 s⁻¹ and the kcat/Km ([4]; other: R97M pure enzyme) was 104 M⁻¹ s⁻¹.

B2: Streptomyces sp. strain TH1 L-proline-3-hydroxylase (cis-P3H), wild type (WT), SEQ ID NO. 1 (Streptomyces sp.) (protein)
chain: T1 sequence (P96010 1-290 R97M) with M97R
B2 was tested, and the Km [5] was 10.27 ± 0.40 mM, the Vmax [5] was 201 µM/min and the kcat [5] was 0.2038 ± 0.002 s⁻¹. The kcat/Km [5] was 19 ± 0.5 M⁻¹ s⁻¹, the Km ([4]; other: WT pure enzyme) was 0.76 ± 0.02 mM and the Vmax ([4]; other: WT pure enzyme) was 101 µM/min. It also gave a kcat ([4]; other: WT pure enzyme) of 0.102 s⁻¹ and a kcat/Km ([4]; other: WT pure enzyme) of 134 M⁻¹ s⁻¹.
